Measurements from patent publication US20250355001A1, “METHOD FOR DETECTING A TAU PROTEIN FRAGMENT IN A SAMPLE” (GTINVENT LIMITED, priority 2022, published 2025).

Tests used:
dGAE aggregates = dGAE aggregates (Homo sapiens, UniProt P10636); experiment: Sandwich ELISA on SDS/Triton X-100 treated dGAE aggregates; type: binding; settings: S1D12 mAb capture, S1G2 scAb detection; SDS + Triton X-100
Experimental: We have noticed Sodium dodecyl sulphate (SDS) can break apart dGA/dGAE aggregates and separate them into smaller fragments by performing an SDS-PAGE. This has been replicated and tested using an ELISA as described below.
For aggregation, 1000 μL 100 μM dGAE+10 μL 10 mM DTT was added to a ‘LoBind’ microfuge tubes and agitated at 700 RPM/37° C. for 24 hours. Resulting sample centrifuged at 17,000×g/4° C. for 60 min and supernatant discarded to remove left over monomer. Pellet resuspended in half the original volume for future experiments and hereafter referred to as ‘aggregates’. 1 μl of aggregates was added to 1 ml of PBS and SDS was added to a final concentration of 1% (w/v). This was left to incubate on lab bench for 1 h with gentle agitation every 15 minutes. In order to neutralize the SDS effect on ELISA, Triton X-100 added to a final concentration of 3% (v/v) and mixed gently by pipetting to prevent any bubble formation. 200 μl added of this mix was to the first well of an ELISA plate coated with 1 μg/ml S1D12 mAb and blocked with 2% MPBS. Similarly aggregates treated with only SDS or Triton X-100, untreated aggregates, dGAE monomers treated with only SDS or SDS+Titon X-100 were also added to designated wells as controls. All samples were then double diluted across the plate in final volumes of 100 μl. The final column was left with no protein to act as a blank. This was allowed to stand at room temperature for 1 hour followed by the addition of detection scAb-S1G2 at 10 μg/ml. Anti-HuCk HRP labelled secondary antibody was added as described previously and ELISA data generated was represented using the graph below.

[1] = test system: core tau in plasma of wildtype, Line 1 and Line 66 mice; experiment: S1D12 mAb 6-week repeat-dose mouse study; plasma tau by CA4-S1G2 Simoa; type: in vivo; settings: for plasma tau (CA4-S1G2 Simoa): 30 mg/kg i.p. once per week, six weeks
Experimental: A total of 12 wildtype, 12 Line 1 and 12 Line 66 female mice were used in this study-Line 1 and Line 66 are transgenic mouse models of tauopathy ( Melis et al., 2015). Animals were 2 months old at the beginning of the study. Mice of each genotype were injected intraperitoneally (i.p.) with either vehicle or S1D12 mAb (30 mg/kg), once per week, for six consecutive weeks.
Seven days post final dose, cardiac puncture blood sampling was performed. mice were anaesthetised using an overdose of sodium pentobarbital (i.p.) and blood was collected via cardiac puncture through a Plastipak syringe pre-rinsed with heparinised saline (10 U/mL) and transferred into a plastic vial containing lithium heparin anticoagulant. Blood samples were centrifuged to obtain plasma at 2,000×g for 5 min at 6° C.
A three-step assay was performed and analysed by following the previously described plasma screening methods using CA4 antibody capture beads, S1G2 detector (10 ng/ml) and the plasma samples added in 1:8 dilution.

[2] = test system: hT40, dGA, dGAE and truncated tau fragments; experiment: Binding ELISA / epitope mapping of anti-tau scAbs with truncated tau proteins and 13mer peptides; set-up: species or system human; settings: for cross-reactivity using hT40, dGA and dGAE antigens: ELISA, 'E' group scAbs; for Tau proteins/fragments with positive scAb reactivity: Table 15, binding ELISA, residue numbers of hT40
Procedure, shortened: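 Serially double-diluted scAbs were applied to 2% MPBS-blocked wells carrying either 1 μg/ml full-length or truncated tau, or biotinylated 13mer peptides (1 μg/ml) captured on 5 μg/ml streptavidin. Absorbance after HRP anti-human C kappa secondary gave the binding signal.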

[3] = test system: 13 aa tau peptides of hT40; experiment: Alanine scanning mutagenesis (ASM) peptide ELISA; type: binding, human; settings: alanine substituted peptides; numbering SEQ ID NO: 1
Experimental: Briefly, 5 μg/ml streptavidin (Thermo Fisher) was adsorbed to Nunc 96-well MaxiSorp plates and following incubation at 37° C. for 1 h, the plates were washed as normal and blocked with 2% MPBS. N-terminally biotinylated peptides (Prolmmune Ltd) were added to the plates and incubated for 1 h at 37° C. Subsequently, test scAbs at starting concentrations of 100-500 nM was added and double diluted across the plate for each peptide and incubated for 1 h at 37° C. Rest of the ELISA was conducted as described above and the plates were read at absorbance 450 nm. Immunoreactivity of the scAb of interest was quantified as the % of scAb was bound for each peptide at a chosen concentration (FIG. 15-20).

[4] = molecular target: T1, hT40 (T441, SEQ ID NO: 1) (Homo sapiens, UniProt P10636); experiment: Biacore X100 SPR kinetics of scAbs for hT40; type: binding; settings: scAb format
T1 construct: Full length tau (hT40)
Procedure, shortened: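 Captured scAb on anti-HuCk CM5 surface (flow cell 1 as reference) in HBS-EP+, capture set for theoretical RMax 100 RU; hT40 injected multi-cycle (0.15625–100 nM) or single-cycle (6.25–100 nM), 120 s association, 420 s dissociation, glycine pH 2.0 regeneration. Kinetics and affinity from 1:1 binding model fit.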

dGAE (SEQ ID NO: 4) = dGAE (SEQ ID NO: 4) (Homo sapiens, UniProt P10636); experiment: Biacore X100 SPR kinetics of scAbs for dGAE; type: binding; settings: Table 24, scAb, dGAE analyte; for Kd: dissociation rate
Experimental: Surface plasmon resonance (SPR) is widely regarded as the gold standard for real time measurement of protein-protein interactions such as antibody binding. All SPR experiments were carried out using a Biacore X100 machine and HBS EP+ running buffer (GE Healthcare). A ‘capture’ method was followed for affinity measurements, where an anti-human constant kappa chain (HuCk) antibody was conjugated to the surface of a CM5 sensor chip using an amine coupling kit and scAb molecules were immobilised via their HuCk domain. Amine coupling is a very common approach for immobilising the ligand to the chip surface. The chip surface has a dextran matrix derivatised with carboxyl groups, which after activation with N-hydroxysuccinimide (NHS) and 1-ethyl-3-(3-dimethylaminopropyl) carbodiimide (EDC), form reactive succinimide esters which allows the covalent capturing of the ligand via any available primary amine groups (e.g. Lysine) on the ligand (in this case anti-HuCk antibody). The capture antibody was diluted 1/100 in 10 mM Sodium acetate buffer pH 5.0 and passed over the activated chip surface for a period of at least 420 s. Final ligand immobilisation levels over 12,000 RU were deemed to be satisfactory.
Following immobilisation, the level of each scAb to be captured was identified using the standard SPR equation with a theoretical RMax of 100 RU. Analyte MW refers to the molecular weight of hT40 or dGA/dGAE molecules, while ligand MW refers to the molecular weight of the scAbs tested. RL is the desired capture level and S refers to the stoichiometric ratio:
The scAb to be tested was added only to flow cell 2 so that flow cell 1 could act as a control to subtract any interaction with the analyte and the chip surface. Both single and multi-cycle runs were utilised using wizards developed in the Biacore X100 control software which are both accepted methods of kinetic analysis (Karlsson, R., et al. Analyzing a kinetic titration series using affinity biosensors (2006) Analytical Biochemistry 349:136-47). The multi-cycle protocol was as follows-Three start-up cycles composed of an initial capture, to the desired level, of the scAb to be tested was performed followed by a 30 s injection of glycine buffer pH 2.0 after each cycle to regenerate the chip surface. The regeneration step removed any captured scAb whilst leaving the capture antibody intact and able to repeat the capture for the next cycle. […]
The single cycle kinetics protocol was similar and utilised the same level of scAb capture. […] Binding responses were analysed in Biacore X100 evaluation software and data fitted to a 1:1 binding model to obtain kinetic and affinity characterisation.

Chain of dGAE (SEQ ID NO: 4) (P10636 614-708): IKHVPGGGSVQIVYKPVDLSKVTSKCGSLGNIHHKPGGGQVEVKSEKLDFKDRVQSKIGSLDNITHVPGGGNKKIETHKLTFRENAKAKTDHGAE
T1 sequence (P10636 1-441 isoform P10636-8): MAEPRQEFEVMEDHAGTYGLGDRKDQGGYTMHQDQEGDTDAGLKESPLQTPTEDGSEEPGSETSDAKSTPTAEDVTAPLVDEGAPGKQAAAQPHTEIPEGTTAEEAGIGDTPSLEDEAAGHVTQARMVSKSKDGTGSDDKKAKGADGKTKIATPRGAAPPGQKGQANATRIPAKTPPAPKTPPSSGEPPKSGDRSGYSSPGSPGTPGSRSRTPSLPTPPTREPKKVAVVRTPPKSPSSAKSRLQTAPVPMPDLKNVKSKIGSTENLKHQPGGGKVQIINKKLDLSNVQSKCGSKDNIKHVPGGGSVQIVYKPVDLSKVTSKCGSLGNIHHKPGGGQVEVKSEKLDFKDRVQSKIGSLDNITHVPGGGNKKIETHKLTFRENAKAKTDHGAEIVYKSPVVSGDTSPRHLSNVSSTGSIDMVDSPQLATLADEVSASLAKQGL
Chain of dGAE aggregates (P10636 614-708): as the sequence (P10636 614-708) above

| Molecule | dGAE aggregates detectable (dGAE aggregates) | increase of core tau in plasma vs vehicle ([1]; L1 mice) | plasma tau (CA4-S1G2 Simoa) ([1]; L1 mice) | plasma tau (CA4-S1G2 Simoa) ([1]; L66+/+ mice, mean (SEM)) | increase of core tau in plasma vs vehicle ([1]; L66 mice) | increase of core tau in plasma vs vehicle ([1]; wild-type mice) | plasma tau (CA4-S1G2 Simoa) ([1]; wildtype mice, mean (SEM)) | cross-reactivity using hT40, dGA and dGAE antigens [2] | Tau proteins/fragments with positive scAb reactivity [2] | Epitope ([2]; Table 26 summary, top scAbs, residues of hT40) | Detection scAb (Epitope) ([2]; Table 28 (LoD table), residues of hT40) | critical binding residues [3] | T441 binding in SPR (result in words) ([4]; Table 23) | hT40 binding (result in words) ([4]; Table 26 summary) | ka (dGAE (SEQ ID NO: 4)) | Kd (dGAE (SEQ ID NO: 4)) |
| --- | --- | --- | --- | --- | --- | --- | --- | --- | --- | --- | --- | --- | --- | --- | --- | --- |
| S1D12 mAb: S1D12 reformatted; heavy chain SEQ ID NO: 445, light chain 446 (antibody, S1D12 mAB Heavy Chain; S1D12 mAB Light Chain) heavy: QVQLQESGPSLVKPSQTLSLTCTVSGFSLNNNAVGWVRQAPGKVPESLVGCSSDGTCYYNSALKSRLDITRDTSKNQISLSLSSVTTDDAAVYYCTRGHYSIYGYDYLGTIDYWGPGLLVTVSSAKTTAPSVYPLAPVCGDTTGSSVTLGCLVKGYFPEPVTLTWNSGSLSSGVHTFPAVLQSDLYTLSSSVTVTSSTWPSQSITCNVAHPASSTKVDKKIEPRGPTIKPCPPCKCPAPNLLGGPSVFIFPPKIKDVLMISLSPIVTCVVVDVSEDDPDVQISWFVNNVEVHTAQTQTHREDYNSTLRVVSALPIQHQDWMSGKEFKCKVNNKDLPAPIERTISKPKGSVRAPQVYVLPPPEEEMTKKQVTLTCMVTDFMPEDIYVEWTNNGKTELNYKNTEPVLDSDGSYFMYSKLRVEKKNWVERNSYSCSVVHEGLHNHHTTKSFSRTPGK light: QAVLTQPSSVSGSLGQRVSITCSGSSSNVGGGNSVGWYQHLPGSGLKTIIYDTNSRPSGVPDRFSGSRSGNTATLTINSLQAEDEGDYYCVTGDSTTHDDLVGSGTRLTVLGGQPKSSPSVTLFPPSSEELETNKATLVCTITDFYPGVVTVDWKVDGTPVTQGMETTQPSKQSNNKYMASSYLTLTARAWERHSSYSCQVTHEGHTVEKSLSRADCS | approximately 2 ng/ml | more than 100 fold | > 100 ng/mL | 3.52 (0.20) ng/ml | more than a threefold increase | less than a two-fold increase | 3.57 (0.22) ng/ml |  |  |  |  |  |  |  |  |  |
| E2E8: dGAE (391E) specific clone, Table 9; SEQ ID NO: 248 (protein, E2E8 amino acid sequence) scFv: QVQLQESGPSLVKPSQTLSLTCTVSGFSLTDRGVAWVRQAPGKALEWVGTMRSGGTIDYNPALKSRLSITRDTSKSQVFLSLSSVTTEDMAMYYCARGYLSGDRYAWGRGLLVTVSSEGKSSGASGESKVDDQAVLTQPSSVSKSLGQSVSIACSGSRSDIGYGNYVSWFQQIPGSAPKLLIYDTNTRASGVPDRFSGARSGNTATLTINSLQAEDEADYYCANIDSSRSHLFGSGTRLTVLG |  |  |  |  |  |  |  | specific dGAE binding | 297-391 (dGAE) | 391 | E2E8 (E dependant) | 391 (E) | No T441 binding | No hT40 binding | 477000 M⁻¹ s⁻¹ | 0.0001915 s⁻¹ |
| E1E8: dGAE (391E) specific clone, Table 9; SEQ ID NO: 250 (protein, E1E8 amino acid sequence) scFv: QVQLQESGPSLVKPSQTLSLTCTVSGFSLTDWGVAWVRQAPGKALEWLGTMRSGGTTDDNPALKSRLSITRDTSKSQVSLSLSSVTTEDMAMYYCARGYLSGVHYAWGRGLLVTVSSEGKSSGASGESKVDDQAVLTQPSSVSGSLGQSVSITCSGSSSNVGDGRYVSWFQQVPGSAPKLLIYDTTSRASGVPDRFSGSRSGNTATLIITSLQAEDEADYYCASIDSGNNLLFGSGTRLTVLG |  |  |  |  |  |  |  | specific dGAE binding | 297-391 (dGAE) |  |  |  |  |  | 153500 M⁻¹ s⁻¹ | 0.0014 s⁻¹ |
